Experimental data reported in patent US20260242735A1 (UNIVERSIT T BASEL, published 2026).

Assays:
Assay in all cases: flow cytometry, alanine scan
human CD33 E360A = human CD33 E360A (human, UniProt P20138 18-364)
Protocol: (§1) An alanine scan on human CD33 was performed to the determine the residues on CD33 that are involved in binding to the antibodies investigated. […] Briefly, a mutation library of CD33 was created by high-throughput, site-directed mutagenesis. Each residue was individually mutated to alanine, with alanine codons mutated to serine. The mutant library was arrayed in 384-well microplates and transiently transfected into HEK293-T. Following transfection, cells were incubated with the indicated antibodies (IgG or Fab) at concentrations pre-determined using an independent immunofluorescence titration curve on wild type CD33. […] Binding of each antibody to each mutant clone was determined in duplicates. For each point, background fluorescence was subtracted from the raw data, which were then normalized to antibody reactivity with wild type CD33.
(§2) Critical residues for antibody binding (outlined in dark grey) were residues whose mutations led to a binding of the test Abs of less than 20%. Additional secondary residues (outlined in light grey) were identified that led to a binding of the test Abs of between 20 and 40% as compared to the wild type CD33.

human CD33 G318A = human CD33 G318A (human, UniProt P20138 18-364)
Protocol: as §1, §2

human CD33 M348A = human CD33 M348A (human, UniProt P20138 18-364)
Protocol: as §1, §2

human CD33 L343A = human CD33 L343A (human, UniProt P20138 18-364)
Protocol: as §1, §2

human CD33 M334A = human CD33 M334A (human, UniProt P20138 18-364)
Protocol: as §1, §2

human CD33 D353A = human CD33 D353A (human, UniProt P20138 18-364)
Protocol: as §1, §2

human CD33 G347A = human CD33 G347A (human, UniProt P20138 18-364)
Protocol: as §1, §2

human CD33 A328S = human CD33 A328S (human, UniProt P20138 18-364)
human CD33 A328S, sequence (P20138 18-364 A328S limits assumed): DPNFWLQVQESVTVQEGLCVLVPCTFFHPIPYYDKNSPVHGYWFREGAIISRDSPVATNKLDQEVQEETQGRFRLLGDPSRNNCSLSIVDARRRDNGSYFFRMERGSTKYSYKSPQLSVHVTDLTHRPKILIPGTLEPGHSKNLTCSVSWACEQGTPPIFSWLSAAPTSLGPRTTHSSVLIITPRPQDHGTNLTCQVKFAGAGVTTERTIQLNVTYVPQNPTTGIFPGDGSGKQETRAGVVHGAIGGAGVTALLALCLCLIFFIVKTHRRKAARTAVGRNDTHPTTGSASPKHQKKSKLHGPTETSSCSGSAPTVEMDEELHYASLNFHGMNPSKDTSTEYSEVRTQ
Protocol: as §1, §2

human CD33 D335A = human CD33 D335A (human, UniProt P20138 18-364)
Protocol: as §1, §2

human CD33 G327A = human CD33 G327A (human, UniProt P20138 18-364)
human CD33 G327A, sequence (P20138 18-364 G327A limits assumed): as the sequence (P20138 18-364 A328S limits assumed) above, with G310A, S311A counted along it
Protocol: as §1, §2

human CD33 E357A = human CD33 E357A (human, UniProt P20138 18-364)
Protocol: as §1, §2

human CD33 T363A = human CD33 T363A (human, UniProt P20138 18-364)
Protocol: as §1, §2

human CD33 A341S = human CD33 A341S (human, UniProt P20138 18-364)
human CD33 A341S, sequence (P20138 18-364 A341S limits assumed): as the sequence (P20138 18-364 A328S limits assumed) above, with S311A, A324S counted along it
Protocol: as §1, §2

human CD33 S351A = human CD33 S351A (human, UniProt P20138 18-364)
Protocol: as §1, §2

human CD33 S323A = human CD33 S323A (human, UniProt P20138 18-364)
Protocol: as §1, §2

human CD33 Y358A = human CD33 Y358A (human, UniProt P20138 18-364)
human CD33 Y358A, sequence (P20138 18-364 Y358A limits assumed): as the sequence (P20138 18-364 A328S limits assumed) above, with S311A, Y341A counted along it
Protocol: as §1, §2

human CD33 E333A = human CD33 E333A (human, UniProt P20138 18-364)
human CD33 E333A, sequence (P20138 18-364 E333A limits assumed): as the sequence (P20138 18-364 A328S limits assumed) above, with S311A, E316A counted along it
Protocol: as §1, §2

human CD33 T322A = human CD33 T322A (human, UniProt P20138 18-364)
Protocol: as §1, §2

human CD33 C325A = human CD33 C325A (human, UniProt P20138 18-364)
human CD33 C325A, sequence (P20138 18-364 C325A limits assumed): as the sequence (P20138 18-364 A328S limits assumed) above, with C308A, S311A counted along it
Protocol: as §1, §2

human CD33 S355A = human CD33 S355A (human, UniProt P20138 18-364)
human CD33 S355A, sequence (P20138 18-364 S355A limits assumed): as the sequence (P20138 18-364 A328S limits assumed) above, with S311A, S338A counted along it
Protocol: as §1, §2

human CD33 S359A = human CD33 S359A (human, UniProt P20138 18-364)
Protocol: as §1, §2

human CD33 T331A = human CD33 T331A (human, UniProt P20138 18-364)
Protocol: as §1, §2

human CD33 S342A = human CD33 S342A (human, UniProt P20138 18-364)
Protocol: as §1, §2

human CD33 H346A = human CD33 H346A (human, UniProt P20138 18-364)
human CD33 H346A, sequence (P20138 18-364 H346A limits assumed): as the sequence (P20138 18-364 A328S limits assumed) above, with S311A, H329A counted along it
Protocol: as §1, §2

human CD33 V361A = human CD33 V361A (human, UniProt P20138 18-364)
human CD33 V361A, sequence (P20138 18-364 V361A limits assumed): as the sequence (P20138 18-364 A328S limits assumed) above, with S311A, V344A counted along it
Protocol: as §1, §2

human CD33 P330A = human CD33 P330A (human, UniProt P20138 18-364)
Protocol: as §1, §2

human CD33 P350A = human CD33 P350A (human, UniProt P20138 18-364)
human CD33 P350A, sequence (P20138 18-364 P350A limits assumed): as the sequence (P20138 18-364 A328S limits assumed) above, with S311A, P333A counted along it
Protocol: as §1, §2

human CD33 N349A = human CD33 N349A (human, UniProt P20138 18-364)
Protocol: as §1, §2

human CD33 A329S = human CD33 A329S (human, UniProt P20138 18-364)
Protocol: as §1, §2

human CD33 P319A = human CD33 P319A (human, UniProt P20138 18-364)
Protocol: as §1, §2

human CD33 S326A = human CD33 S326A (human, UniProt P20138 18-364)
Protocol: as §1, §2

human CD33 V332A = human CD33 V332A (human, UniProt P20138 18-364)
human CD33 V332A, sequence (P20138 18-364 V332A limits assumed): as the sequence (P20138 18-364 A328S limits assumed) above, with S311A, V315A counted along it
Protocol: as §1, §2

human CD33 S324A = human CD33 S324A (human, UniProt P20138 18-364)
Protocol: as §1, §2

human CD33 K352A = human CD33 K352A (human, UniProt P20138 18-364)
Protocol: as §1, §2

human CD33 E336A = human CD33 E336A (human, UniProt P20138 18-364)
Protocol: as §1, §2

human CD33 L338A = human CD33 L338A (human, UniProt P20138 18-364)
Protocol: as §1, §2

human CD33 T320A = human CD33 T320A (human, UniProt P20138 18-364)
Protocol: as §1, §2

human CD33 T356A = human CD33 T356A (human, UniProt P20138 18-364)
Protocol: as §1, §2

human CD33 F345A = human CD33 F345A (human, UniProt P20138 18-364)
Protocol: as §1, §2

human CD33 H339A = human CD33 H339A (human, UniProt P20138 18-364)
Protocol: as §1, §2

human CD33 R362A = human CD33 R362A (human, UniProt P20138 18-364)
Protocol: as §1, §2

human CD33 E321A = human CD33 E321A (human, UniProt P20138 18-364)
human CD33 E321A, sequence (P20138 18-364 E321A limits assumed): as the sequence (P20138 18-364 A328S limits assumed) above, with E304A, S311A counted along it
Protocol: as §1, §2

human CD33 T354A = human CD33 T354A (human, UniProt P20138 18-364)
Protocol: as §1, §2

human CD33 E337A = human CD33 E337A (human, UniProt P20138 18-364)
Protocol: as §1, §2

human CD33 Y340A = human CD33 Y340A (human, UniProt P20138 18-364)
Protocol: as §1, §2

human CD33 N344A = human CD33 N344A (human, UniProt P20138 18-364)
Protocol: as §1, §2

human CD33 Q364A = human CD33 Q364A (human, UniProt P20138 18-363)
Protocol: as §1, §2

human CD33 M334A, sequence (P20138 18-364 M334A limits assumed): as the sequence (P20138 18-364 A328S limits assumed) above, with S311A, M317A counted along it
human CD33 M348A, sequence (P20138 18-364 M348A limits assumed): as the sequence (P20138 18-364 A328S limits assumed) above, with S311A, M331A counted along it

B1: Refmab #4 (antibody, V domains shown)
VH: QVQLVQSGAEVKKPGESVKVSCKASGYTFTNYGMNWVKQAPGQGLEWMGWINTYTGEPTYADKFQGRVTMTTDTSTSTAYMEIRNLGGDDTAVYYCARWSWSDGYYVYFDYWGQGTSVTVSS
VL: DIVMTQSPDSLTVSLGERTTINCKSSQSVLDSSTNKNSLAWYQQKPGQPPKLLLSWASTRESGIPDRFSGSGSGTDFTLTIDSPQPEDSATYYCQQSAHFPITFGQGTRLEIK
notes: The alanine scan used IgG or Fab
Human CD33 E360A
  Mean % WT Binding: 104 % of WT
Human CD33 G318A
  Mean % WT Binding: 92.2 % of WT
Human CD33 M348A
  Mean % WT Binding: 85 % of WT
Human CD33 L343A
  Mean % WT Binding: 116 % of WT
Human CD33 M334A
  Mean % WT Binding: 111 % of WT
Human CD33 D353A
  Mean % WT Binding: 74.9 % of WT
Human CD33 G347A
  Mean % WT Binding: 72.1 % of WT
Human CD33 A328S
  Mean % WT Binding: 75.6 % of WT
Human CD33 D335A
  Mean % WT Binding: 105 % of WT
Human CD33 G327A
  Mean % WT Binding: 99.1 % of WT
Human CD33 E357A
  Mean % WT Binding: 110 % of WT
Human CD33 T363A
  Mean % WT Binding: 124 % of WT
Human CD33 A341S
  Mean % WT Binding: 104 % of WT
Human CD33 S351A
  Mean % WT Binding: 114 % of WT
Human CD33 S323A
  Mean % WT Binding: 103 % of WT
Human CD33 Y358A
  Mean % WT Binding: 109 % of WT
Human CD33 E333A
  Mean % WT Binding: 104 % of WT
Human CD33 T322A
  Mean % WT Binding: 98.2 % of WT
Human CD33 C325A
  Mean % WT Binding: 88.6 % of WT
Human CD33 S355A
  Mean % WT Binding: 91.5 % of WT
Human CD33 S359A
  Mean % WT Binding: 82.7 % of WT
Human CD33 T331A
  Mean % WT Binding: 97.9 % of WT
Human CD33 S342A
  Mean % WT Binding: 105 % of WT
Human CD33 H346A
  Mean % WT Binding: 111 % of WT
Human CD33 V361A
  Mean % WT Binding: 92.4 % of WT
Human CD33 P330A
  Mean % WT Binding: 97.8 % of WT
Human CD33 P350A
  Mean % WT Binding: 93.1 % of WT
Human CD33 N349A
  Mean % WT Binding: 95.5 % of WT
Human CD33 A329S
  Mean % WT Binding: 87.3 % of WT
Human CD33 P319A
  Mean % WT Binding: 97 % of WT
Human CD33 S326A
  Mean % WT Binding: 65.8 % of WT
Human CD33 V332A
  Mean % WT Binding: 93.4 % of WT
Human CD33 S324A
  Mean % WT Binding: 96.4 % of WT
Human CD33 K352A
  Mean % WT Binding: 103 % of WT
Human CD33 E336A
  Mean % WT Binding: 109 % of WT
Human CD33 L338A
  Mean % WT Binding: 109 % of WT
Human CD33 T320A
  Mean % WT Binding: 109 % of WT
Human CD33 T356A
  Mean % WT Binding: 107 % of WT
Human CD33 F345A
  Mean % WT Binding: 109 % of WT
Human CD33 H339A
  Mean % WT Binding: 82 % of WT
Human CD33 R362A
  Mean % WT Binding: 104 % of WT
Human CD33 E321A
  Mean % WT Binding: 120 % of WT
Human CD33 T354A
  Mean % WT Binding: 106 % of WT
Human CD33 E337A
  Mean % WT Binding: 106 % of WT
Human CD33 Y340A
  Mean % WT Binding: 112 % of WT
Human CD33 N344A
  Mean % WT Binding: 71.2 % of WT
Human CD33 Q364A
  Mean % WT Binding: 81.5 % of WT
